Experimental data from patent US20110117113A1, “IMMUNOGLOBULIN SINGLE VARIABLE DOMAIN DIRECTED AGAINST HUMAN CXCR4 AND OTHER CELL ASSOCIATED PROTEINS AND METHODS TO GENERATE THEM” (priority 2009, published 2011).

What was measured:
Test in all cases: Shotgun mutagenesis epitope mapping, immunofluorescence on CXCR4 mutation library in HEK-293T
Format in all cases: binding
[1] = target: T1, CXCR4 mutation library (Human CXCR4-short) (Homo sapiens, UniProt P61073, K230E/S178R); settings: residue S178; mutations K230E, S178R; normalized to wild type; 3 experiments (+/−range)
T1 construct: expressed in transfected cells; host or cells: HEK-293T, transient, 384-well
T1 sequence (P61073 whole entry S178R/K230E): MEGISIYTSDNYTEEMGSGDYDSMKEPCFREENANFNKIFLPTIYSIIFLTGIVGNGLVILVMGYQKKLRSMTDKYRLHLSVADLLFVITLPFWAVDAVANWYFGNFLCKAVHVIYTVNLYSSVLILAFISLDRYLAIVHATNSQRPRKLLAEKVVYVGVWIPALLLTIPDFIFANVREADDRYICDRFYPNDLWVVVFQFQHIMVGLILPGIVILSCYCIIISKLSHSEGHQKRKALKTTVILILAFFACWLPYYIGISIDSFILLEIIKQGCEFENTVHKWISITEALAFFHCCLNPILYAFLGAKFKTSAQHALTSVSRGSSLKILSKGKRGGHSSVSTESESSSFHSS
Source text: (§1) Method: See e.g. Willis, et al. 2008. Virus-like particles as quantitative probes of membrane protein interactions. Biochemistry 47:6988-6990. In short, the method comprises the following steps:
(§2) Create comprehensive mutation library • Start with a cDNA in eukaryotic expression plasmid • Create library where every amino acid is individually mutated
(§3) Express each clone within living cells in 384-well microplates
(§4) Detect structure and/or function of proteins
(§5) • Parental plasmid: Human CXCR4-short (SEQ ID NO: 6, 352 amino acids) • Epitope tags: N-terminal Flag (to detect surface expression), C-terminal V5 (to detect full-length translation) • Cell types used for immunofluorescence assays: HEK-293T
(§6) The immunofluorescence assay conditions (to detect binding) were optimized for the nanbodies to be tested. In short, 384-well immunofluorescence (IF) assay using HEK-293T cells transiently was transfected with different concentrations of CXCR4 DNA. The plate was first incubated with different concentrations of either Nanobody 238D2 or 238D4, then with 9E10, and finally with Cy3. The commercially-available anti-CXCR4 MAb 12G5 was used as an IF control.
(§7) Mapping Nanobody Binding to CXCR4 Mutation Library: The entire library was screened in triplicate with each Nanobody. The data was background-subtracted and normalized to wild type reactivity and averaged across the repeats. Nanobody binding was plotted as a function of average surface expression, and measured by immunoreactivity of an N-terminal Flag epitope tag. Thresholds of 60% Flag and 30% Nanobody were used to identify critical clones. Using standard IF conditions, we identified 1 critical residue (2 critical clones). Using increased stringency assay conditions (high salt), we identified 5 additional residues (Tables C-3 and C-4).

[2] = target: T2, CXCR4 mutation library (Human CXCR4-short) (Homo sapiens, UniProt P61073, F189V); settings: residue F189; mutation F189V; normalized to wild type; 3 experiments (+/−range)
T2 construct: expressed in transfected cells; host or cells: HEK-293T, transient, 384-well
T2 sequence (P61073 whole entry F189V): as the sequence (P61073 whole entry S178R/K230E) above, with R178S, F189V, E230K counted along it
Source text: as §1, §2, §3, §4, §5, §6, §7

[3] = target: T3, CXCR4 mutation library (Human CXCR4-short) (Homo sapiens, UniProt P61073, F189L/S319P/V155E); settings: residue F189; mutations F189L, S319P, V155E; normalized to wild type; 3 experiments (+/−range)
T3 construct: expressed in transfected cells; host or cells: HEK-293T, transient, 384-well
T3 sequence (P61073 whole entry V155E/F189L/S319P): as the sequence (P61073 whole entry S178R/K230E) above, with V155E, R178S, F189L, E230K, S319P counted along it
Source text: as §1, §2, §3, §4, §5, §6, §7

[4] = target: T4, CXCR4 mutation library (Human CXCR4-short) (Homo sapiens, UniProt P61073, E277G); settings: residue E277; mutation E277G; normalized to wild type; 3 experiments (+/−range); 238D2 critical residues under high stringency
T4 construct: expressed in transfected cells; host or cells: HEK-293T, transient, 384-well
T4 sequence (P61073 whole entry E277G): as the sequence (P61073 whole entry S178R/K230E) above, with R178S, E230K, E277G counted along it
Source text: as §1, §2, §3, §4, §5, §6, §7

[5] = target: T5, CXCR4 mutation library (Human CXCR4-short) (Homo sapiens, UniProt P61073, C218R/E179V/S351T); settings: residue E179; mutations C218R, E179V, S351T; normalized to wild type; 3 experiments (+/−range)
T5 construct: expressed in transfected cells; host or cells: HEK-293T, transient, 384-well
T5 sequence (P61073 whole entry E179V/C218R/S351T): as the sequence (P61073 whole entry S178R/K230E) above, with R178S, E179V, C218R, E230K, S351T counted along it
Source text: as §1, §2, §3, §4, §5, §6, §7

[6] = target: T6, CXCR4 mutation library (Human CXCR4-short) (Homo sapiens, UniProt P61073, P191T); settings: residue P191; mutation P191T; normalized to wild type; 3 experiments (+/−range); 238D2 critical residues under high stringency
T6 construct: expressed in transfected cells; host or cells: HEK-293T, transient, 384-well
T6 sequence (P61073 whole entry P191T): as the sequence (P61073 whole entry S178R/K230E) above, with R178S, P191T, E230K counted along it
Source text: as §1, §2, §3, §4, §5, §6, §7

[7] = target: T7, CXCR4 mutation library (Human CXCR4-short) (Homo sapiens, UniProt P61073, N192K); settings: residue N192; mutation N192K; normalized to wild type; 3 experiments (+/−range); 238D2 critical residues under high stringency
T7 construct: expressed in transfected cells; host or cells: HEK-293T, transient, 384-well
T7 sequence (P61073 whole entry N192K): as the sequence (P61073 whole entry S178R/K230E) above, with R178S, N192K, E230K counted along it
Source text: as §1, §2, §3, §4, §5, §6, §7

[8] = target: T8, CXCR4 mutation library (Human CXCR4-short) (Homo sapiens, UniProt P61073, F189S/K308R); settings: residue F189; mutations F189S, K308R; normalized to wild type; 3 experiments (+/−range)
T8 construct: expressed in transfected cells; host or cells: HEK-293T, transient, 384-well
T8 sequence (P61073 whole entry F189S/K308R): as the sequence (P61073 whole entry S178R/K230E) above, with R178S, F189S, E230K, K308R counted along it
Source text: as §1, §2, §3, §4, §5, §6, §7

[9] = target: T9, CXCR4 mutation library (Human CXCR4-short) (Homo sapiens, UniProt P61073, D187A/Y157C); settings: residue D187; mutations D187A, Y157C; normalized to wild type; 3 experiments (+/−range)
T9 construct: expressed in transfected cells; host or cells: HEK-293T, transient, 384-well
T9 sequence (P61073 whole entry Y157C/D187A): as the sequence (P61073 whole entry S178R/K230E) above, with Y157C, R178S, D187A, E230K counted along it
Source text: as §1, §2, §3, §4, §5, §6, §7

[10] = target: T10, CXCR4 mutation library (Human CXCR4-short) (Homo sapiens, UniProt P61073, E179V/G258E); settings: residue E179; mutations E179V, G258E; normalized to wild type; 3 experiments (+/−range)
T10 construct: expressed in transfected cells; host or cells: HEK-293T, transient, 384-well
T10 sequence (P61073 whole entry E179V/G258E): as the sequence (P61073 whole entry S178R/K230E) above, with R178S, E179V, E230K, G258E counted along it
Source text: as §1, §2, §3, §4, §5, §6, §7

[11] = target: T11, CXCR4 mutation library (Human CXCR4-short) (Homo sapiens, UniProt P61073, V196E); settings: residue V196; mutation V196E; normalized to wild type; 3 experiments (+/−range); 238D2 critical residues under high stringency
T11 construct: expressed in transfected cells; host or cells: HEK-293T, transient, 384-well
T11 sequence (P61073 whole entry V196E): as the sequence (P61073 whole entry S178R/K230E) above, with R178S, V196E, E230K counted along it
Source text: as §1, §2, §3, §4, §5, §6, §7

[12] = target: T12, CXCR4 mutation library (Human CXCR4-short) (Homo sapiens, UniProt P61073, E277A/I245V/N298S); settings: residue E277; mutations E277A, I245V, N298S; normalized to wild type; 3 experiments (+/−range); 238D2 critical residues under high stringency
T12 construct: expressed in transfected cells; host or cells: HEK-293T, transient, 384-well
T12 sequence (P61073 whole entry I245V/E277A/N298S): as the sequence (P61073 whole entry S178R/K230E) above, with R178S, E230K, I245V, E277A, N298S counted along it
Source text: as §1, §2, §3, §4, §5, §6, §7

B1: 238D2: monovalent anti CXCR4 Nanobody, SEQ ID NO: 2 (protein)
VHH: EVQLVESGGGLVQTGGSLRLSCAASGFTFSSYAMSWVRQAPGKGLEWVSGIKSSGDSTRYAGSVKGRFTISRDNAKNMLYLQMYSLKPEDTAVYYCAKSRVSRTGLYTYDNRGQGTQVTVSS
modifications: Nanobody
% immunofluoresence, clone 1057 [1]: 54.6 (5.8) % | % immunofluoresence, clone 1129 [2]: −1.9 (24.2) % | % immunofluoresence, clone 465 [3]: 31.8 (16.2) % | % immunofluoresence, clone 3622 [4]: 19.5 (11.9) % | % immunofluoresence, clone 414 [5]: 71.1 (6.7) % | % immunofluoresence, clone 2184 [6]: 15.8 (5.4) % | % immunofluoresence, clone 914 [7]: 8.3 (3.6) % | % immunofluoresence, clone 913 [8]: −32.6 (18.7) % | % immunofluoresence, clone 3728 [9]: 77.1 (18.2) % | % immunofluoresence, clone 2834 [10]: 84.6 (7.8) % | % immunofluoresence, clone 2270 [11]: 20.6 (32.9) % | % immunofluoresence, clone 185 [12]: 35.5 (12.3) %
